The values that follow come from article PMC8096068, “The canonical α-SNAP is essential for gametophytic development in Arabidopsis” (PLoS Genetics, 2021).

For this experiment, the target named is T1, His-NSF (Arabidopsis, UniProt Q9M0Y8 1-742).
T1 construct: Arabidopsis thaliana N-ethylmaleimide-sensitive factor (NSF), At4g04910; also called NSF-His; his-tagged NSF
T1 sequence (looked up): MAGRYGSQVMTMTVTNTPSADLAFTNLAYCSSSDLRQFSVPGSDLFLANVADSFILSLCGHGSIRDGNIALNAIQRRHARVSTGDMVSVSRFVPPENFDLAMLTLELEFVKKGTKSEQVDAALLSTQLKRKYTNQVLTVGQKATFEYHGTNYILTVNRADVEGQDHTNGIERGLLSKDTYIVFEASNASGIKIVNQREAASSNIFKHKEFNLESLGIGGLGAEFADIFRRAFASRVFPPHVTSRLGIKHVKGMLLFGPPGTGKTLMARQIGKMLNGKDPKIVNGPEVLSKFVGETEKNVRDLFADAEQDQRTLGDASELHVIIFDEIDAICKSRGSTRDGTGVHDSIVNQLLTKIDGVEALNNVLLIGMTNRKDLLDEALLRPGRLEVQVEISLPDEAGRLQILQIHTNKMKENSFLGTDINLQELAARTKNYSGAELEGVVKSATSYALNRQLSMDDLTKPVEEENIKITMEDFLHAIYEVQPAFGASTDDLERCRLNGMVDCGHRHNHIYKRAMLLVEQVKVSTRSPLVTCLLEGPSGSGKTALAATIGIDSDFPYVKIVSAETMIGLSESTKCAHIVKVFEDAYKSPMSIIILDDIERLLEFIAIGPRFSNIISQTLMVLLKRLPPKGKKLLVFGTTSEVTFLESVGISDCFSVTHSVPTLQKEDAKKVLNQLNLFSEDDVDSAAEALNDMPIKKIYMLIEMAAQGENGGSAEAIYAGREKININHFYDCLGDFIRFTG
Briefly: pull-down; in vitro pull-down; NSF-His used to pull down ASNAP.1-GST or ASNAP.2-GST; recombinant proteins from E. coli, affinity-purified. Conditions: both partners purified.

B1: GST-ASNAP.1 (natural protein, Arabidopsis, UniProt Q9SPE6 1-289, looked up)
chain: MGDHLVRAEEFEKKAEKKLNGWGIFGSKYEDAADLLEKAANSYKLAKSWDQAGKAYLKLADCHLKSDSKHDAANAYAEAAKCYKKVDTNEAASCLERAVNIFCEIGRLNMAARYYKEIAEYYESDQKFEQAIAYFEKAAEFFQNEEVTTSANQCNLKVAQYAAQLEQYEKAIKIYEDIARHSLNNNLLKYGVKGHLLTAGMCHLCKADVVSITNALEKYQDLDPTFTGTRECKFLADLASAIDEEDIAKFTDVVKEFDSMTPLDSWKTTMLLRVKEKLKAKELEEDDLT
notes: Arabidopsis thaliana alpha-soluble NSF attachment protein ASNAP, splicing variant ASNAP.1 (At3g56190.1); The only vector named for the pull-down constructs is pET-32a, which is not a GST vector; also called ASNAP.1-GST; α-SNAP.1
Take B1: the binding result is “binds”.
